Assay results reported in the supplement of paper PMC9170038.

System: MS2 coat protein
Assay: apparent KD of MS2 coat protein; designed switch direction (-1 OFF switch, 1 ON switch): -1; higher = weaker reporter binding
How it was run: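 Apparent KD, taken as the median over clusters for each design, was obtained by curve-fitting normalised cluster fluorescence. Designed RNA switches had been transcribed on Illumina chips by stalled E. coli RNA polymerase and titrated with SNAP-549-labelled MS2 coat protein, doubling from 0.7 or 1.5 nM to 3 µM.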

[1] = input ligand: microRNA oligo, concentration not stated
[2] = Eterna round: R95, input ligand: FMN 200 uM
[3] = Eterna round: R95, input ligand: microRNA oligo, concentration not stated
[4] = Eterna round: R95, input ligand: none

With “AACUCAUGUUCAGGAUAUCGCGUUCCAAAGACAUGAGAAGGGAACAUGAGGAUCACCCAUGUACCCGGUCUCAGACCGGGCUUC [Tiriaron] (Eterna round: R96, puzzle: Exclusion NG 1)” the “apparent KD of MS2 coat protein” value (input ligand: FMN 200 uM) was 115 nM, the “apparent KD of MS2 coat protein” value [1] was 41.8 nM and the “apparent KD of MS2 coat protein” value (input ligand: none) was 64.1 nM.

In the case of “AACUCUAAGCAGGAUAUCUAGCAAACGUCCGCAAGAGAAGGGCUUACAUGAGGAUCACCCAUGUAAGGAUGAUC [Reorzainar] (puzzle: Exclusion 6)”, the “apparent KD of MS2 coat protein” value [2] is reported as 48.8 nM, the “apparent KD of MS2 coat protein” value [3] is reported as 26 nM and the “apparent KD of MS2 coat protein” value [4] is reported as 24.9 nM.

For “AACUGGACAGGAUAUGUUCUUGAGCACUUGAGGAUCACCCAAGUCAUCAAGAACUCAGGCACAGAAGGGUUUAUGC [salish99_ex5_r4_003] (Eterna round: R97, puzzle: Exclusion 5)”, the “apparent KD of MS2 coat protein” value (input ligand: FMN 200 uM) was 19 nM and the “apparent KD of MS2 coat protein” value (input ligand: none) was 13.4 nM.

In the case of “AAGAAACAUGAGGAUCACCCAUGUGAGGAUAUGAAAAAGAAAAGAAAAGAAAGAAGGCUCAGAAGGCACAAAGG [salish99-ex1_r3_029] (puzzle: Exclusion 1)”, the “apparent KD of MS2 coat protein” value [2] is reported as 30.5 nM, the “apparent KD of MS2 coat protein” value [3] is reported as 24.1 nM and the “apparent KD of MS2 coat protein” value [4] is reported as 28.6 nM.

With “AAGAAACAUGAGGAUCACCCAUGUGAGGAUAUGAAAAAGAAAAGAAAAGAAAGAAGUUUCAGAAGGCACAAAGG [salish99-ex1_r3_024] (puzzle: Exclusion 1)” the “apparent KD of MS2 coat protein” value [2] was 83.8 nM, the “apparent KD of MS2 coat protein” value [3] was 41.2 nM and the “apparent KD of MS2 coat protein” value [4] was 44.9 nM.

“AAGAAACAUGAGGAUCACCCAUGUGAGGAUAUGACCCGCCCGGCGUAAGCAAAAUAAAUCAGAAGGCACAAAGG [salish99_ex1_r4_007] (Eterna round: R97, puzzle: Exclusion 1)” was tested, and the “apparent KD of MS2 coat protein” value (input ligand: FMN 200 uM) was 35.5 nM and the “apparent KD of MS2 coat protein” value (input ligand: none) was 37.3 nM.

With “AAGAAACAUGAGGAUCACCCAUGUGAGGAUAUGACUAAGAAAAGAAAAGAAAGAAGACUCAGAAGGCACAAAGG [salish99-ex1_r3_075] (puzzle: Exclusion 1)” the “apparent KD of MS2 coat protein” value [2] was 68.9 nM, the “apparent KD of MS2 coat protein” value [3] was 54.5 nM and the “apparent KD of MS2 coat protein” value [4] was 46.8 nM.

In the case of “AAGAAACAUGAGGAUCACCCAUGUGAGGAUAUGAUAAAGAAAAGAAAAGAAAGAAGAGUCAGAAGGCACAAAGG [salish99-ex1_r3_037] (puzzle: Exclusion 1)”, the “apparent KD of MS2 coat protein” value [2] is reported as 71.6 nM, the “apparent KD of MS2 coat protein” value [3] is reported as 35.8 nM and the “apparent KD of MS2 coat protein” value [4] is reported as 47.4 nM.

For “AAGAAACAUGAGGAUCACCCAUGUGAGGAUAUGGCCCGCCCGGCGUGAGCUGGUUUAAUCAGAAGGCACAAAGG [salish99_ex1_r4_014] (Eterna round: R97, puzzle: Exclusion 1)”, the “apparent KD of MS2 coat protein” value (input ligand: FMN 200 uM) was 44.8 nM and the “apparent KD of MS2 coat protein” value (input ligand: none) was 38.1 nM.

For “AAGAAACAUGAGGAUCACCCAUGUGAGGAUAUGUAAAAGAAAAUAAAAUAAAUAAUAAACAGAAGGCACAAAGG [Mat - Mod of Hog D18] (puzzle: Exclusion 1)”, the “apparent KD of MS2 coat protein” value [2] was 58.2 nM, the “apparent KD of MS2 coat protein” value [3] was 33.6 nM and the “apparent KD of MS2 coat protein” value [4] was 40.9 nM.

With “AAGAAACGAGGAUAUACAGUUGAGUGAGGGAUGUUAGUGUUACAUGAGGAUCACCCAUGUAGAAGGCGUGAGAG [JR_Exclu2_Sub091] (puzzle: Exclusion 2)” the “apparent KD of MS2 coat protein” value [2] was 66.4 nM, the “apparent KD of MS2 coat protein” value [3] was 32.2 nM and the “apparent KD of MS2 coat protein” value [4] was 36.2 nM.

“AAGAAAGGUGACAUGGGUGACAUGAGGAUCACCCAUGUUACAAGCUUGUUGCUCGUCUUAUAAUUAACCCAUGUCAC [LRO Sensor-off var1-20 mod of Stov1-13-A1 by Brourd] (Eterna round: R97, puzzle: Sensor, turn-off variant 1)” was tested, and the “apparent KD of MS2 coat protein” value (input ligand: FMN 200 uM) was 15.6 nM and the “apparent KD of MS2 coat protein” value (input ligand: none) was 15.6 nM.

For “AAGAACGUGCAAGGAUAUCUCCACCAAACCGGCAGAGAAGGUGCACAUGAGGAUCACCCAUGUGACCUAAAGCUCUUAUGAGCC [Raledigeen] (Eterna round: R96, puzzle: Exclusion NG 1)”, the “apparent KD of MS2 coat protein” value (input ligand: FMN 200 uM) was 30.6 nM, the “apparent KD of MS2 coat protein” value [1] was 13.1 nM and the “apparent KD of MS2 coat protein” value (input ligand: none) was 17.3 nM.

“AAGAACUGAGGAUAUGCAAAAGGGAAAGCUGAUCCUCAUCUACAUGAGGAUCACCCAUGUAGAAGGCGGGAAAU [Aveerve] (Eterna round: R96, puzzle: Exclusion 2)” was tested, and the “apparent KD of MS2 coat protein” value (input ligand: FMN 200 uM) was 108 nM, the “apparent KD of MS2 coat protein” value [1] was 50.7 nM and the “apparent KD of MS2 coat protein” value (input ligand: none) was 74 nM.

With “AAGAAGAAGUAAGGAUAUGAAGAUUUGGUGAUGACAUGAGGAUCACCCAUGUGAAAACAAUAAGAUCAGAAGGUAUAAGAAGAA [AK ExNG2-2.2] (Eterna round: R96, puzzle: Exclusion NG 2)” the “apparent KD of MS2 coat protein” value (input ligand: FMN 200 uM) was 104 nM, the “apparent KD of MS2 coat protein” value [1] was 61.6 nM and the “apparent KD of MS2 coat protein” value (input ligand: none) was 112 nM.
